Reference: US20200385482A1

Columns and labels:
[1] = target: human C-type lectin domain family 2 member (hCLEC2D) expressed on transfected 300.19 cells (human) (UniProt Q9UHP7); test: FACS, hCLEC2D 300.19 cells, assay 1, Ab 1 ug/ml
[2] = target: human C-type lectin domain family 2 member (hCLEC2D) expressed on transfected 300.19 cells (human) (UniProt Q9UHP7); test: FACS, hCLEC2D 300.19 cells, assay 2, Ab 1 ug/ml
[3] = target: human C-type lectin domain family 2 member (hCLEC2D) expressed on transfected 300.19 cells (human) (UniProt Q9UHP7); test: FACS, hCLEC2D 300.19 cells, assay 1, Ab 0.1 ug/ml
[4] = target: human C-type lectin domain family 2 member (hCLEC2D) expressed on transfected 300.19 cells (human) (UniProt Q9UHP7); test: FACS, hCLEC2D 300.19 cells, assay 2, Ab 0.1 ug/ml
[5] = target: human C-type lectin domain family 2 member (hCLEC2D) expressed on transfected 300.19 cells (human) (UniProt Q9UHP7); test: FACS, hCLEC2D 300.19 cells, assay 1, Ab 0.01 ug/ml
[6] = target: human C-type lectin domain family 2 member (hCLEC2D) expressed on transfected 300.19 cells (human) (UniProt Q9UHP7); test: FACS, hCLEC2D 300.19 cells, assay 2, Ab 0.01 ug/ml
[7] = target: human C-type lectin domain family 2 member (hCLEC2D) expressed on transfected 300.19 cells (human) (UniProt Q9UHP7); test: FACS, hCLEC2D 300.19 cells, assay 1, Ab approx 10 ug/ml
[8] = target: human C-type lectin domain family 2 member (hCLEC2D) expressed on transfected 300.19 cells (human) (UniProt Q9UHP7); test: FACS, hCLEC2D 300.19 cells, assay 2, Ab approx 10 ug/ml

Sequence of human C-type lectin domain family 2 member (hCLEC2D) expressed on transfected 300.19 cells (human) (Q9UHP7 whole entry, the tested form may be a part): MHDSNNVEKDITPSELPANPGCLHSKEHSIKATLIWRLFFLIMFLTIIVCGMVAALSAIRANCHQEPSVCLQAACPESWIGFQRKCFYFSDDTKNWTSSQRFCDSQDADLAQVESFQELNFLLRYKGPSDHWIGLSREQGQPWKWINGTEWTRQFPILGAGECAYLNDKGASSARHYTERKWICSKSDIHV

Row | Binder | Cells PE-A Mean [1] | Cells PE-A Mean [2] | Cells PE-A Mean [3] | Cells PE-A Mean [4] | Cells PE-A Mean [5] | Cells PE-A Mean [6] | Cells PE-A Mean [7] | Cells PE-A Mean [8]
1 | Ab-52 (antibody, V domains shown) VH: QVQLQESGGGVVQPGRSLRLSCSASGFTFSRHGMHWVRQAPGKGLEWVAVISHDGSVKYYADSMKGRFSISRDNSNNTLYLQMDSLRADDTAVYYCARGLSYQVSGWFDPWGQGTLVTVSS VL: NFMLTQPHSVSESPGKTVTISCTRSSGSIASNYVQWYQQRPGSAPTTVIYEDNQRPSGVPDRFSGSIDSSSNSASLTISGLKTEDEADYYCQSYDSTTPSVFGGGTKLTVL | 1100 MFI | 1100 MFI | 298 MFI | 298 MFI | 166 MFI | 166 MFI | 3140 MFI | 3140 MFI
2 | Ab-31 (antibody, V domains shown) VH: QVQLVQSGAEVKKPGATVKVSCKVFGDTFRGLYIHWVRQAPGQGLEWMGGIIPIFGTANYAQKFQGRVTITTDESTSTAYMELSSLRSEDTAVYYCASGLRWGIWGWFDPWGQGTLVTVSS VL: EIVLTQSPATLSLSPGERATLSCRASQSIGNSLAWYQQKPGQAPRLLMYGASSRATGIPDRFSGSGAGTDFTLTISSLEPEDFATYYCQQHTIPTFSFGPGTKVEVK | 870 MFI | 870 MFI | 360 MFI | 360 MFI | 153 MFI | 153 MFI | 2950 MFI | 2950 MFI
3 | Ab-16 (antibody, V domains shown) VH: EVQLVQSGGGVVQPGRSLRLSCAASGFTFSSYALSWVRQAPGKGLEWVSAISGGGGSTYYADSVKGRFTISRDNSKNTLYLQMNSLRAEDTAVYYCAKDVFPETFSMNYGMDVWGQGTLVTVSS VL: SSELTQDPAVSVALGQTVRITCQGDSLRSYYASWYQQKPGQAPVLVIYGKNNRPSGIPDRFSGSSSGNTASLTITGAQAEDEADYYCNSRDSSGNHYVFGTGTKVTVL | 898 MFI | 898 MFI | 294 MFI | 294 MFI | 154 MFI | 154 MFI | 2370 MFI | 2370 MFI
